This assay has as its target SARS-CoV-2 RBD-his (SARS-CoV-2, UniProt P0DTC2). Kind of assay: ELISA.

B1: 16L9 (antibody, V domains shown)
VH: EVQLVESGGGLIQPGGSLRLSCAASGFTVSSNYMSWVRQAPGKGLEWVSVIYSGGSTYYADSVKGRFTISRDNSENTLYLQMNSLRAEDTAVYYCARGEIQPYYYYGMDVWGQGTTVTVSS
VL: QSVLTQPPSASGSPGQSVTISCTGTSSDFGGYNSVSWYQQHPGKAPKLMIYEVSKRPSGVPDRFSGSKSGNTASLTVSGLQAEDEADYYCSSYAGSNNFDVFGTGTKVTVL
Turning to B1, the binding result is listed as “binds”.
